Measurements: PMC6868441 (Nucleic Acids Research, 2019)

T1: ArlR full length (Staphylococcus aureus, UniProt Q9KJN4 1-219)
T1 sequence: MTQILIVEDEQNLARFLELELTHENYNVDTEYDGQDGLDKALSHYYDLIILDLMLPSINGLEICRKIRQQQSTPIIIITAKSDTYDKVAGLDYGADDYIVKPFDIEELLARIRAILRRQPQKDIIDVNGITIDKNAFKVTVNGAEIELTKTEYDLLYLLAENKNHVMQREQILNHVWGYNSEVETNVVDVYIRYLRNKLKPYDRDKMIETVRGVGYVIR

B1: ArlR receiver domain (amino acids 1–121) (domain or fragment, S. aureus, UniProt Q9KJN4 1-121, looked up)
chain: MTQILIVEDEQNLARFLELELTHENYNVDTEYDGQDGLDKALSHYYDLIILDLMLPSINGLEICRKIRQQQSTPIIIITAKSDTYDKVAGLDYGADDYIVKPFDIEELLARIRAILRRQPQ
B2: ArlR-BdDNA-wt 24 bp (dsDNA)
DNA 1: TGATAGTATTTTAATTTGCAATAG
DNA 2: CTATTGCAAATTAAAATACTATCA
B3: Position 1,4&6 mutation 24 bp (dsDNA)
DNA 1: TGCTATTCTTTTAATTGGAAAGAG
DNA 2: CTCTTTCCAATTAAAAGAATAGCA

Assays:
SEC = molecular target: the molecule itself; assay: SEC
ArlR full length = molecular target: T1, ArlR full length; assay: EMSA

| Binder | stoichiometry N (SEC) | binding result (ArlR full length) |
| --- | --- | --- |
| B1 | 2 |  |
| B2 |  | binds |
| B3 |  | no binding |
